Series [1] has as its target T1, CCD/CTE (aa 817-1054) of ROS-GC1 (Bos taurus, UniProt P55203, A1013R).
T1 construct: gene GUCY2D; dimer
Kind of series: cyclic GMP radioimmunoassay, purified protein. The format is biochemical. The note with it: 1 mM GTP, 4 mM MgCl2, pH 7.5, 37 °C.

In series [2] the target is T2, CCD (aa fragment 817-965) of ROS-GC1 (Bos taurus, UniProt P55203, A1013R).
T2 construct: gene GUCY2D; homodimer
Kind of series: cyclic GMP radioimmunoassay, purified protein. The note with it: 1 mM GTP, 4 mM MgCl2, pH 7.5, 37 °C. Format: biochemical.

The target in series [3] is T3, ROS-GC1 (rod outer segment guanylate cyclase type 1), full-length recombinant (Bos taurus, UniProt P55203).
T3 construct: gene GUCY2D; full-length wild-type cDNA expressed in COS-7 cells; membrane fraction assayed; homodimer
T3 sequence (P55203 57-1110): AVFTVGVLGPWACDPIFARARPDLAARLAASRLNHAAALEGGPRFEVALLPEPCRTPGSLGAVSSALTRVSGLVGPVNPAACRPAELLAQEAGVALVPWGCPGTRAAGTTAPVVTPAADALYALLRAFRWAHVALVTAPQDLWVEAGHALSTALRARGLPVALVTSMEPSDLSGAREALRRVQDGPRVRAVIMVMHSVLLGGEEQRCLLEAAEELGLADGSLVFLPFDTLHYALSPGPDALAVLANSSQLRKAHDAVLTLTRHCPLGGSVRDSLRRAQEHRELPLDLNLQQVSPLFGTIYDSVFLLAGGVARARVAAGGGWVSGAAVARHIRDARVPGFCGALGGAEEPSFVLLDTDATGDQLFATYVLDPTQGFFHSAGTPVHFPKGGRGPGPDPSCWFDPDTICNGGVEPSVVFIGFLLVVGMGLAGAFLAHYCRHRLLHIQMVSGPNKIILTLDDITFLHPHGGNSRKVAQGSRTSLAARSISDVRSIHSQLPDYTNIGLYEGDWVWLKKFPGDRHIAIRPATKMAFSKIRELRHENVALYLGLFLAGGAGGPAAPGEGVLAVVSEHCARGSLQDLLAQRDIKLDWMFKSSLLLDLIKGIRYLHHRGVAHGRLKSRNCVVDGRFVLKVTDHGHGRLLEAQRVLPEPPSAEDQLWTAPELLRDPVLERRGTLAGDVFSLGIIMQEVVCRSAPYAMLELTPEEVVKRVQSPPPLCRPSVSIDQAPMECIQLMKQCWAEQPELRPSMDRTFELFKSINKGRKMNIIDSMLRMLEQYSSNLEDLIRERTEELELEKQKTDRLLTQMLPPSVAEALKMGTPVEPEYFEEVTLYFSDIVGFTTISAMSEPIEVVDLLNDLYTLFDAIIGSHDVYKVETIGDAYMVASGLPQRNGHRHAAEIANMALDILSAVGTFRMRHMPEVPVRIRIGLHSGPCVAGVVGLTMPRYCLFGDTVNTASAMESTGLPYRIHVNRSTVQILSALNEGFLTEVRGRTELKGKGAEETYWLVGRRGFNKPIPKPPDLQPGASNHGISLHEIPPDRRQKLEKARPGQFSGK
Kind of series: cyclic GMP radioimmunoassay, COS cell membranes; Hill fit. The format is biochemical. The note with it: constant Mg2+, GTP 0-3 mM, pH 7.5, 37 °C; half-maximal concentration from Hill equation.

Substrate in series [4]: Nc1nc2c(ncn2[C@@H]2O[C@H](COP(=O)(O)OP(=O)(O)OP(=O)(O)O)[C@@H](O)[C@H]2O)c(=O)[nH]1
Described as above. Format: biochemical, Bos taurus. To be noted: constant Mg2+, GTP 0-3 mM, pH 7.5, 37 °C, half-maximal concentration from Hill equation.

Changes are numbered by the printed parent chain. In names and notes the source's numbering stands.

T2 sequence (P55203 873-1021 A1013R): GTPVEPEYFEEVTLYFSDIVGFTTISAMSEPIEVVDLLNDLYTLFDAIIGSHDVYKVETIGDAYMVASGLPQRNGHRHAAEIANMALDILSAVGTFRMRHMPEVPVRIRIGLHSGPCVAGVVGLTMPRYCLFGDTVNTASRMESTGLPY
T1 sequence (P55203 873-1110 A1013R): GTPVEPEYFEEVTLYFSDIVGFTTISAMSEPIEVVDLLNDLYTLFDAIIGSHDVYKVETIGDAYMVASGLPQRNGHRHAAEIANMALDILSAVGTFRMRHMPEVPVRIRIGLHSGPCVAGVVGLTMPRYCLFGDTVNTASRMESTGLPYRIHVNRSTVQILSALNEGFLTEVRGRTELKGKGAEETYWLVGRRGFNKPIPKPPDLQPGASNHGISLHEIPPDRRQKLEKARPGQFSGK

For `Nc1nc2c(ncn2[C@@H]2O[C@H](COP(=O)(O)OP(=O)(O)OP(=O)(O)O)[C@@H](O)[C@H]2O)c(=O)[nH]1` [GTP], the “cyclic GMP radioimmunoassay, purified protein” value was “constructs lacked the TMD, illustrated by the CCD–CTE and CCD” in series [1]; “The isolated soluble CCD construct contained only a minimal basal specific catalytic activity” in series [2]. Also, in series [3], the Km was 500 ± 30 µM.

B1: ROS-GC1 (rod outer segment guanylate cyclase type 1), full-length recombinant (Bos taurus; A1013R) (protein)
chain: T3 sequence (P55203 57-1110) with A957R
notes: full-length wild-type cDNA expressed in COS-7 cells; membrane fraction assayed; homodimer
For B1, in series [4], the Km came out at 450 ± 20 µM.

B2: ROS-GC1 (rod outer segment guanylate cyclase type 1), full-length recombinant (Bos taurus; A1013R/R981A) (protein)
chain: T3 sequence (P55203 57-1110) with R925A, A957R
notes: as for B1
For the molecule B2, the Km in series [4] is 520 ± 30 µM.

B3: ROS-GC1 (rod outer segment guanylate cyclase type 1), full-length recombinant (Bos taurus; A1013R/D890A) (protein)
chain: T3 sequence (P55203 57-1110) with D834A, A957R
notes: as for B1
Take B3: the Km in series [4] came out at 560 ± 30 µM.

B4: ROS-GC1 (rod outer segment guanylate cyclase type 1), full-length recombinant (Bos taurus; A1013R/D934A) (protein)
chain: T3 sequence (P55203 57-1110) with D878A, A957R
notes: as for B1
On to B4, for which the Km in series [4] amounted to 480 ± 40 µM.

B5: ROS-GC1 (rod outer segment guanylate cyclase type 1), full-length recombinant (Bos taurus; A1013R/C1002A) (protein)
chain: T3 sequence (P55203 57-1110) with C946A, A957R
notes: as for B1
In the case of B5, in series [4], the Km turned out to be 640 ± 20 µM.

B6: ROS-GC1 (rod outer segment guanylate cyclase type 1), full-length recombinant (Bos taurus; A1013R/N1009A) (protein)
chain: T3 sequence (P55203 57-1110) with N953A, A957R
notes: as for B1
As to B6, the Michaelis constant (Km) in series [4] amounted to 490 ± 10 µM.

B7: ROS-GC1 (rod outer segment guanylate cyclase type 1), full-length recombinant (Bos taurus; A1013R/E930A) (protein)
chain: T3 sequence (P55203 57-1110) with E874A, A957R
notes: as for B1
In the case of B7, in series [4], the Km was determined as 530 ± 30 µM.

Values taken from PMC5461267, “Membrane Guanylate Cyclase catalytic Subdomain: Structure and Linkage with Calcium Sensors and Bicarbonate” (Frontiers in Molecular Neuroscience, 2017).
